Experiments:
HeLa Kyoto [1] = test: solubility change mitosis vs G1/S (difference of NP-40 vs SDS log2 ratios) (log2 ratio difference); higher = more soluble in mitosis
HeLa Kyoto [2] = test: solubility in G1/S (NP-40 vs SDS abundance) (log2 ratio); higher = more soluble; settings: cell cycle stage: G1/S
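Wherever solubility change mitosis vs G1/S (difference of NP-40 vs SDS log2 ratios) is given: synchronized HeLa Kyoto cells (double thymidine block for G1/S, nocodazole release for mitosis), protein amounts in NP-40 versus SDS lysates quantified by mass spectrometry, three biological replicates.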
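Wherever solubility in G1/S (NP-40 vs SDS abundance) is given: HeLa Kyoto cells arrested at G1/S by double thymidine block, proteins quantified by TMT10plex mass spectrometry in mild NP-40 versus SDS extracts, three biological replicates.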

Chain of SENP3 (chain, as listed by the source): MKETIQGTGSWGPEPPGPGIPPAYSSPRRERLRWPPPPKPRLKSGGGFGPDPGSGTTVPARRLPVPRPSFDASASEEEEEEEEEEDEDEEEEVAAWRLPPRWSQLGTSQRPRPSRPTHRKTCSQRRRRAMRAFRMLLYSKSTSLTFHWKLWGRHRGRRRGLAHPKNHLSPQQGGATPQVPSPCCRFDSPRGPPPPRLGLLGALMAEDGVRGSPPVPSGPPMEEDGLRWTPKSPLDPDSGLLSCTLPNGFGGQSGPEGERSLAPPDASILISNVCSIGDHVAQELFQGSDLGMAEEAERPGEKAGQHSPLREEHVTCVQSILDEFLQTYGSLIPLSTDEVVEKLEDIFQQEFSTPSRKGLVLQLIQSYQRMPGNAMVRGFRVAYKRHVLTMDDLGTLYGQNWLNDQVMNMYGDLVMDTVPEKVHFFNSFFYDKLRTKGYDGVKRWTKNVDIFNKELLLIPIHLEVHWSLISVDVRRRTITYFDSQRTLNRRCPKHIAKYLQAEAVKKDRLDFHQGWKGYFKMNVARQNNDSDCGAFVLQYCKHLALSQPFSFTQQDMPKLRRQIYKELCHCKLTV

| Substance | solubility change mitosis (log2) (HeLa Kyoto [1]) | solubility in G1/S (log2) (HeLa Kyoto [2]) |
| --- | --- | --- |
| MLARALLLCAVLALSHTANPCCSHPCQNRGVCMSVGFDQYKCDCTRTGFYGENCSTPEFLTRIKLFLKPTPNTVHYILTHFKGFWNVVNNIPFLRNAIMSYVLTSRSHLIDSPPTYNADYGYKSWEAFSNLSYYTRALPPVPDDCPTPLGVKGKKQLPDSNEIVEKLLLRRKFIPDPQGSNMMFAFFAQHFTHQFFKTDHKRGPAFTNGLGHGVDLNHIYGETLARQRKLRLFKDGKMKYQIIDGEMYPPTVKDTQAEMIYPPQVPEHLRFAVGQEVFGLVPGLMMYATIWLREHNRVCDVLKQEHPEWGDEQLFQTSRLILIGETIKIVIEDYVQHLSGYHFKLKFDPELLFNKQFQYQNRIAAEFNTLYHWHPLLPDTFQIHDQKYNYQQFIYNNSILLEHGITQFVESFTRQIAGRVAGGRNVPPAVQKVSQASIDQSRQMKYQSFNEYRKRFMLKPYESFEELTGEKEMSAELEALYGDIDAVELYPALLVEKPRPDAIFGETMVEVGAPFSLKGLMGNVICSPAYWKPSTFGGEVGFQIINTASIQSLICNNVKGCPFTSFSVPDPELIKTVTINASSSRSGLDDINPTVLLKERSTEL [PTGS2] | -0.117 | 0.069 |
| MAGARRLELGEALALGSGWRHACHALLYAPDPGMLFGRIPLRYAILMQMRFDGRLGFPGGFVDTQDRSLEDGLNRELREELGEAAAAFRVERTDYRSSHVGSGPRVVAHFYAKRLTLEELLAVEAGATRAKDHGLEVLGLVRVPLYTLRDGVGGLPTFLENSFIGSAREQLLEALQDLGLLQSGSISGLKIPAHH [NUDT16] | -0.184 | 0.0531 |
| MAATDLERFSNAEPEPRSLSLGGHVGFDSLPDQLVSKSVTQGFSFNILCVGETGIGKSTLMNTLFNTTFETEEASHHEACVRLRPQTYDLQESNVQLKLTIVDAVGFGDQINKDESYRPIVDYIDAQFENYLQEELKIRRSLFDYHDTRIHVCLYFITPTGHSLKSLDLVTMKKLDSKVNIIPIIAKADTISKSELHKFKIKIMGELVSNGVQIYQFPTDDEAVAEINAVMNAHLPFAVVGSTEEVKVGNKLVRARQYPWGVVQVENENHCDFVKLREMLIRVNMEDLREQTHSRHYELYRRCKLEEMGFQDSDGDSQPFSLQETYEAKRKEFLSELQRKEEEMRQMFVNKVKETELELKEKERELHEKFEHLKRVHQEEKRKVEEKRRELEEETNAFNRRKAAVEALQSQALHATSQQPLRKDKDKKNRSDIGAHQPGMSLSSSKVMMTKASVEPLNCSSWWPAIQCCSCLVRDATWREGFL [SEPT8] | -0.0125 | -0.0316 |
| MEAPPVTMMPVTGGTINMMEYLLQGSVLDHSLESLIHRLRGLCDNMEPETFLDHEMVFLLKGQQASPFVLRARRSMDRAGAPWHLRYLGQPEMGDKNRHALVRNCVDIATSENLTDFLMEMGFRMDHEFVAKGHLFRKGIMKIMVYKIFRILVPGNTDSTEALSLSYLVELSVVAPAGQDMVSDDMKNFAEQLKPLVHLEKIDPKRLM [MED18] | -0.161 | 0.212 |
| MKEMVGGCCVCSDERGWAENPLVYCDGHACSVAVHQACYGIVQVPTGPWFCRKCESQERAARVRCELCPHKDGALKRTDNGGWAHVVCALYIPEVQFANVLTMEPIVLQYVPHDRFNKTCYICEEQGRESKAASGACMTCNRHGCRQAFHVTCAQMAGLLCEEEVLEVDNVKYCGYCKYHFSKMKTSRHSSGGGGGGAGGGGGSMGGGGSGFISGRRSRSASPSTQQEKHPTHHERGQKKSRKDKERLKQKHKKRPESPPSILTPPVVPTADKVSSSASSSSHHEASTQETSESSRESKGKKSSSHSLSHKGKKLSSGKGVSSFTSASSSSSSSSSSSGGPFQPAVSSLQSSPDFSAFPKLEQPEEDKYSKPTAPAPSAPPSPSAPEPPKADLFEQKVVFSGFGPIMRFSTTTSSSGRARAPSPGDYKSPHVTGSGASAGTHKRMPALSATPVPADETPETGLKEKKHKASKRSRHGPGRPKGSRNKEGTGGPAAPSLPSAQLAGFTATAASPFSGGSLVSSGLGGLSSRTFGPSGSLPSLSLESPLLGAGIYTSNKDPISHSGGMLRAVCSTPLSSSLLGPPGTSALPRLSRSPFTSTLPSSSASISTTQVFSLAGSTFSLPSTHIFGTPMGAVNPLLSQAESSHTEPDLEDCSFRCRGTSPQESLSSMSPISSLPALFDQTASAPCGGGQLDPAAPGTTNMEQLLEKQGDGEAGVNIVEMLKALHALQKENQRLQEQILSLTAKKERLQILNVQLSVPFPALPAALPAANGPVPGPYGLPPQAGSSDSLSTSKSPPGKSSLGLDNSLSTSSEDPHSGCPSRSSSSLSFHSTPPPLPLLQQSPATLPLALPGAPAPLPPQPQNGLGRAPGAAGLGAMPMAEGLLGGLAGSGGLPLNGLLGGLNGAAAPNPASLSQAGGAPTLQLPGCLNSLTEQQRHLLQQQEQQLQQLQQLLASPQLTPEHQTVVYQMIQQIQQKRELQRLQMAGGSQLPMASLLAGSSTPLLSAGTPGLLPTASAPPLLPAGALVAPSLGNNTSLMAAAAAAAAVAAAGGPPVLTAQTNPFLSLSGAEGSGGGPKGGTADKGASANQEKG [MLLT6] | 0.828 | -1.14 |
| MASESETLNPSARIMTFYPTMEEFRNFSRYIAYIESQGAHRAGLAKVVPPKEWKPRASYDDIDDLVIPAPIQQLVTGQSGLFTQYNIQKKAMTVREFRKIANSDKYCTPRYSEFEELERKYWKNLTFNPPIYGADVNGTLYEKHVDEWNIGRLRTILDLVEKESGITIEGVNTPYLYFGMWKTSFAWHTEDMDLYSINYLHFGEPKSWYSVPPEHGKRLERLAKGFFPGSAQSCEAFLRHKMTLISPLMLKKYGIPFDKVTQEAGEFMITFPYGYHAGFNHGFNCAESTNFATRRWIEYGKQAVLCSCRKDMVKISMDVFVRKFQPERYKLWKAGKDNTVIDHTLPTPEAAEFLKESELPPRAGNEEECPEEDMEGVEDGEEGDLKTSLAKHRIGTKRHRVCLEIPQEVSQSELFPKEDLSSEQYEMTECPAALAPVRPTHSSVRQVEDGLTFPDYSDSTEVKFEELKNVKLEEEDEEEEQAAAALDLSVNPASVGGRLVFSGSKKKSSSSLGSGSSRDSISSDSETSEPLSCRAQGQTGVLTVHSYAKGDGRVTVGEPCTRKKGSAARSFSERELAEVADEYMFSLEENKKSKGRRQPLSKLPRHHPLVLQECVSDDETSEQLTPEEEAEETEAWAKPLSQLWQNRPPNFEAEKEFNETMAQQAPHCAVCMIFQTYHQVEFGGFNQNCGNASDLAPQKQRTKPLIPEMCFTSTGCSTDINLSTPYLEEDGTSILVSCKKCSVRVHASCYGVPPAKASEDWMCSRCSANALEEDCCLCSLRGGALQRANDDRWVHVSCAVAILEARFVNIAERSPVDVSKIPLPRFKLKCIFCKKRRKRTAGCCVQCSHGRCPTAFHVSCAQAAGVMMQPDDWPFVVFITCFRHKIPNLERAKGALQSITAGQKVISKHKNGRFYQCEVVRLTTETFYEVNFDDGSFSDNLYPEDIVSQDCLQFGPPAEGEVVQVRWTDGQVYGAKFVASHPIQMYQVEFEDGSQLVVKRDDVYTLDEELPKRVKSRLSVASDMRFNEIFTEKEVKQEKKRQRVINSRYREDYIEPALYRAIME [KDM4A] | 0.0206 | -0.143 |
| MAPRKGSSRVAKTNSLRRRKLASFLKDFDREVEIRIKQIESDRQNLLKEVDNLYNIEILRLPKALREMNWLDYFALGGNKQALEEAATADLDITEINKLTAEAIQTPLKSAKTRKVIQVDEMIVEEEEEEENERKNLQTARVKRCPPSKKRTQSIQGKGKGKRSSRANTVTPAVGRLEVSMVKPTPGLTPRFDSRVFKTPGLRTPAAGERIYNISGNGSPLADSKEIFLTVPVGGGESLRLLASDLQRHSIAQLDPEALGNIKKLSNRLAQICSSIRTHK [CDCA8] | 0.0931 | -1.64 |
| MEPPMEPSGGEQEPGAVRFLDLPWEDVLLPHVLNRVPLRQLLRLQRVSRAFRSLVQLHLAGLRRFDAAQVGPQIPRAALARLLRDAEGLQELALAPCHEWLSDEDLVPVLARNPQLRSVALGGCGQLSRRALGALAEGCPRLQRLSLAHCDWVDGLALRGLADRCPALEELDLTACRQLKDEAIVYLAQRRGAGLRSLSLAVNANVGDAAVQELARNCPELHHLDLTGCLRVGSDGVRTLAEYCPVLRSLRVRHCHHVAESSLSRLRKRGVDIDVEPPLHQALVLLQDMAGFAPFVNLQV [FBXL15] | -0.195 | 0.189 |
| MEIAPQEAPPVPGADGDIEEAPAEAGSPSPASPPADGRLKAAAKRVTFPSDEDIVSGAVEPKDPWRHAQNVTVDEVIGAYKQACQKLNCRQIPKLLRQLQEFTDLGHRLDCLDLKGEKLDYKTCEALEEVFKRLQFKVVDLEQTNLDEDGASALFDMIEYYESATHLNISFNKHIGTRGWQAAAHMMRKTSCLQYLDARNTPLLDHSAPFVARALRIRSSLAVLHLENASLSGRPLMLLATALKMNMNLRELYLADNKLNGLQDSAQLGNLLKFNCSLQILDLRNNHVLDSGLAYICEGLKEQRKGLVTLVLWNNQLTHTGMAFLGMTLPHTQSLETLNLGHNPIGNEGVRHLKNGLISNRSVLRLGLASTKLTCEGAVAVAEFIAESPRLLRLDLRENEIKTGGLMALSLALKVNHSLLRLDLDREPKKEAVKSFIETQKALLAEIQNGCKRNLVLAREREEKEQPPQLSASMPETTATEPQPDDEPAAGVQNGAPSPAPSPDSDSDSDSDGEEEEEEEGERDETPCPALVPPTDSLGPGDRSPPGSPSTPTEQRISVSSPGRGHKVFVVTRVESPPERAEPPASPTPPSPPPPPSPPASPSLPPAGAIDTRDTGSSEPQPPPEPPRSGPPLPNGLKPEFALALPPEPPPGPEVKGGSCGLEHELSCSKNEKELEELLLEASQESGQETL [PPP1R37] | -0.284 | 0.0581 |
| MDEADRRLLRRCRLRLVEELQVDQLWDALLSRELFRPHMIEDIQRAGSGSRRDQARQLIIDLETRGSQALPLFISCLEDTGQDMLASFLRTNRQAAKLSKPTLENLTPVVLRPEIRKPEVLRPETPRPVDIGSGGFGDVGALESLRGNADLAYILSMEPCGHCLIINNVNFCRESGLRTRTGSNIDCEKLRRRFSSLHFMVEVKGDLTAKKMVLALLELAQQDHGALDCCVVVILSHGCQASHLQFPGAVYGTDGCPVSVEKIVNIFNGTSCPSLGGKPKLFFIQACGGEQKDHGFEVASTSPEDESPGSNPEPDATPFQEGLRTFDQLDAISSLPTPSDIFVSYSTFPGFVSWRDPKSGSWYVETLDDIFEQWAHSEDLQSLLLRVANAVSVKGIYKQMPGCFNFLRKKLFFKTS [CASP9] | -0.0656 | 0.32 |
| KIAA0586 | 0.00667 | -0.0749 |
| MIMNKMKNFKRRFSLSVPRTETIEESLAEFTEQFNQLHNRRNENLQLGPLGRDPPQECSTFSPTDSGEEPGQLSPGVQFQRRQNQRRFSMEDVSKRLSLPMDIRLPQEFLQKLQMESPDLPKPLSRMSRRASLSDIGFGKLETYVKLDKLGEGTYATVFKGRSKLTENLVALKEIRLEHEEGAPCTAIREVSLLKNLKHANIVTLHDLIHTDRSLTLVFEYLDSDLKQYLDHCGNLMSMHNVKIFMFQLLRGLAYCHHRKILHRDLKPQNLLINERGELKLADFGLARAKSVPTKTYSNEVVTLWYRPPDVLLGSTEYSTPIDMWGVGCIHYEMATGRPLFPGSTVKEELHLIFRLLGTPTEETWPGVTAFSEFRTYSFPCYLPQPLINHAPRLDTDGIHLLSSLLLYESKSRMSAEAALSHSYFRSLGERVHQLEDTASIFSLKEIQLQKDPGYRGLAFQQPGRGKNRRQSIF [CDK18] | -0.00432 | 0.0482 |
| SENP3 | 1.04 | -1.5 |
| DOPEY2 | -0.106 | -0.255 |
